Values of other authors, collected in article PMC4896244.
pKd: −log10 of the molar value.

Target: Connexin 43 CT (UniProt P23242)
UniProt P23242, sequence (P23242 255-382): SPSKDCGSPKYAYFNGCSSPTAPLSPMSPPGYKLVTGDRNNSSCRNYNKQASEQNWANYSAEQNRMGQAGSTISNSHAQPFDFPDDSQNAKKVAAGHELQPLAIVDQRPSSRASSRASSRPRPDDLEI

Substance: CIP75 UBA (from UniProt Q99NB8)
- pKd: 3.52
